In the supplement of paper PMC10724198:
± gives the standard deviation of the averaged measurements.

Tested on: Saccharomyces cerevisiae
Assay: protein stability index of tFT-peptide fusion (C-terminal peptide) (PSI (0-1 scale)); higher = more stable (slower turnover)
Details: genetic background: wild type; temperature: 30 C
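Further: PSI is a weighted mean of sequencing reads over stability bins, variants kept only with over 10 reads, mCherry proximal and sfGFP distal, peptide attached via GGGS linker.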

| Sequence | protein stability index |
| --- | --- |
| SASAILPWAIKL | 0.639 ± 0.075 |
| SASLPSPPFPSP | 0.649 ± 0.054 |
| SASSLPVVAARA | 0.544 ± 0.021 |
| SASVLVLRRSSP | 0.732 ± 0.074 |
| SCARARFAPHHS | 0.734 ± 0.0092 |
| SCCSLCKAVRNL | 0.718 ± 0.054 |
| SCFVAWAFCGWY | 0.554 ± 0.0084 |
| SCFVWAFRCWGF | 0.621 ± 0.043 |
| SCGWWWGGGAGG | 0.656 ± 0.041 |
| SCHEARWEVVMW | 0.771 ± 0.17 |
| SCHGGWFLHVFT | 0.645 ± 0.018 |
| SCKARPLVAASD | 0.66 ± 0.044 |
| SCLPPSRPSSAL | 0.629 ± 0.019 |
| SCLSGALPPFLA | 0.668 ± 0.042 |
| SCLSLALYASHF | 0.56 ± 0.033 |
| SCLYPGLCLSYF | 0.674 ± 0.0069 |
| SCMSVRKSSPRS | 0.691 ± 0.044 |
| SCPAPAALPLPR | 0.674 ± 0.026 |
| SCPPVLFFPFPW | 0.705 ± 0.051 |
| SCRLALPPSFLS | 0.706 ± 0.024 |
| SCYGPRAPFHSP | 0.581 ± 0.074 |
| SCYHGDYCTVAW | 0.7062 ± 0.0017 |
| SDEIKTLGLRKK | 0.683 ± 0.025 |
| SDPLRLPNTCQH | 0.669 ± 0.009 |
| SDSAPPPAALPH | 0.7263 ± 0.0029 |

| Sequence | protein stability index |
| --- | --- |
| SDSSRRVFDVRR | 0.705 ± 0.046 |
| SDTHYLAGELCT | 0.596 ± 0.034 |
| SDVAWVEAPPRS | 0.678 ± 0.097 |
| SECLCVRDRCGG | 0.685 ± 0.078 |
| SELVARGGGGGW | 0.728 ± 0.07 |
| SESVGLCLGVTW | 0.767 ± 0.05 |
| SEVFAVGITGVI | 0.6788 ± 0.0039 |
| SFAPPLRCPPSS | 0.709 ± 0.02 |
| SFDPCLCTLSLL | 0.6961 ± 0.0049 |
| SFDPPYALLPPP | 0.685 ± 0.02 |
| SFIFTLRRSRPR | 0.667 ± 0.012 |
| SFLGYAVFPYKG | 0.6808 ± 0.0041 |
| SFLVPLTAHISP | 0.673 ± 0.083 |
| SFPLPSLSSPSS | 0.61 ± 0.075 |
| SFPPFSPLYSPP | 0.717 ± 0.067 |
| SFPPPLPPPLHP | 0.721 ± 0.06 |
| SFQCTCLSPCTG | 0.652 ± 0.07 |
| SFRPPSTPRRRT | 0.695 ± 0.03 |
| SFRYVGLTRVFG | 0.592 ± 0.032 |
| SFSCYFPLGFFG | 0.7416 ± 0.001 |
| SFSLSMFVTYSF | 0.505 ± 0.03 |
| SFSLVATESPVT | 0.709 ± 0.052 |
| SFSRLYGCVPRD | 0.678 ± 0.0098 |
| SFSSAVIPPFAP | 0.728 ± 0.053 |
| SFTLPPPLLSRT | 0.747 ± 0.008 |

| Sequence | protein stability index |
| --- | --- |
| SFVDDILVRPIA | 0.715 ± 0.05 |
| SFVGGKLRTEYS | 0.71 ± 0.068 |
| SFVSDYIILIVL | 0.497 ± 0.081 |
| SFWNLFAGWYVI | 0.685 ± 0.03 |
| SGAGVGGQVAVG | 0.717 ± 0.061 |
| SGDVGVGHWVGG | 0.692 ± 0.022 |
| SGEKKPTKGTRT | 0.57 ± 0.055 |
| SGEVSYVYVGNK | 0.6553 ± 0.0011 |
| SGFLLSPPRPSF | 0.693 ± 0.042 |
| SGGAEGVRAGAA | 0.715 ± 0.081 |
| SGGQDSFVLRLG | 0.6687 ± 0.0015 |
| SGGRGAILVSVV | 0.647 ± 0.078 |
| SGGVKGKKKGEK | 0.702 ± 0.043 |
| SGHGFFMCLFRC | 0.552 ± 0.028 |
| SGIEAGAELGVG | 0.567 ± 0.011 |
| SGIEHVLIVYDT | 0.679 ± 0.11 |
| SGIRGWNLGEMW | 0.7152 ± 0.0068 |
| SGKIDKGAIAIS | 0.663 ± 0.049 |
| SGLPLLSSYATR | 0.72 ± 0.048 |
| SGLQPADMVFFR | 0.749 ± 0.056 |
| SGPSIPCFLYSS | 0.698 ± 0.013 |
| SGSFQGNVRVPC | 0.676 ± 0.017 |
| SGSRFRTVRAPE | 0.654 ± 0.032 |
